For experiment [1], the target named is monkey PD-L1 Fc fusion (monkey (Rhesus macaque, Macaca mulatta)) (UniProt F6PJN1). Nature of the experiment: KinExA, room temperature, two curves (50 pM and 10 pM scFv). In general terms: A kinetic exclusion assay measures how much of one partner remains free in solution.
Experiment [2] shares this target. The experiment is described as follows: KinExA, ratio of KD values.
Experiment [3] has as its target T1, recombinant human PD-L1 Fc fusion (human, UniProt Q9NZQ7 19-239).
T1 construct: Bought Fc fusion (RnD Systems 156-B7); also called rhPD-L1 Fc fusion; not shown: Fc part of the bought fusion
Nature of the experiment: ELISA on immobilized recombinant human PD-L1-Fc (2 µg/mL), detection with Protein L-HRP, A450 nm. The protocol: After, blocking with 5% non-fat dry milk, increasing concentrations of scFv was added and detected by Protein L-HRP (Sigma-Aldrich).

T1 sequence (Q9NZQ7 19-239 limits assumed): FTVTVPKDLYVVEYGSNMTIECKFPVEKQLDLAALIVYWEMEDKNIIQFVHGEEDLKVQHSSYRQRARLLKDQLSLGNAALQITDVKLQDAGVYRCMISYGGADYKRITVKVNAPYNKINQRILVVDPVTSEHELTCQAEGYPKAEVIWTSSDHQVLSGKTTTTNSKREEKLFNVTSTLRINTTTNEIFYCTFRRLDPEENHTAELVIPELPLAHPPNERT

B1: anti-PD-L1 scFv (scFv)
scFv: EIVMTQSPSTLSASVGDRVIITCQASEDIYSLLAWYQQKPGKAPKLLIYDASDLASGVPSRFSGSGSGAEFTLTISSLQPDDFATYYCQGNYGSSSSSSYGAVFGQGTKLTVLGGGGGSGGGGSGGGGSGGGGSEVQLVESGGGLVQPGGSLRLSCTVSGIDLSSYTMGWVRQAPGKGLEWVGIISSGGRTYYASWAKGRFTISRDTSKNTVYLQMNSLRAEDTAVYYCARGRYTGYPYYFALWGQGTLVTVSS
notes: Humanized scFv with rabbit CDRs, VL-linker-VH; also called scFv1; scFv control
In experiment [1], B1 had a Kd of 3.3 pM. In addition, in experiment [2], the fold tighter affinity than binding to human PD-L1 was 2.7 fold. Further, the “EC50 (read off the curve)” value in experiment [3] was around 8 ng/mL.

Usually Kd stands for a measure of binding affinity in units of concentration. The EC50 (read off the curve) is the midpoint of the concentration-response curve.

The record behind these values is patent publication US20190048085A1 (CELL MEDICA SWITZERLAND, published 2019).
